T1: mouse integrin β8 (mouse, UniProt Q0VBD0 22-767)
T1 construct: whole, on cells; also called mouse β8; itgb8
T1 sequence (looked up): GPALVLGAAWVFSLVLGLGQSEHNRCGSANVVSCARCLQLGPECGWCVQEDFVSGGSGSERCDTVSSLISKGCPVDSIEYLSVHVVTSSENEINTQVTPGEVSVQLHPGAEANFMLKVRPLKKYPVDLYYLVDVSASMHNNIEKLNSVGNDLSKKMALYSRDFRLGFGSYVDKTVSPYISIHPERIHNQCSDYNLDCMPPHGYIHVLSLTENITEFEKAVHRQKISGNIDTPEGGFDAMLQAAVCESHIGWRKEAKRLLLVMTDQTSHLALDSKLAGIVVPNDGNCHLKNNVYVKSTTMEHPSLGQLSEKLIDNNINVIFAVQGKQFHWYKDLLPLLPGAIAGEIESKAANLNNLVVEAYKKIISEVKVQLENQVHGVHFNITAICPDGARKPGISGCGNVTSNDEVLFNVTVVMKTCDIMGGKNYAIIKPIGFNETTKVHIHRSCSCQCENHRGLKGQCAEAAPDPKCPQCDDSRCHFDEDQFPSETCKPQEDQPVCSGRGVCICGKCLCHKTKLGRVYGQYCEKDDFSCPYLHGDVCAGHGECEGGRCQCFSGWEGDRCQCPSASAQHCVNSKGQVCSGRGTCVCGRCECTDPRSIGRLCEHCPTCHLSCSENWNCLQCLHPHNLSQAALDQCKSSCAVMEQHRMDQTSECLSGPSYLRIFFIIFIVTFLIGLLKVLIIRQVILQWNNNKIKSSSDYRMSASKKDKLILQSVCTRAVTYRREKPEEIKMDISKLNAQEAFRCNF

T2: human integrin β8 swap construct V R I N S (SEQ ID NO:124) (human, UniProt P26012 43-769)
T2 sequence: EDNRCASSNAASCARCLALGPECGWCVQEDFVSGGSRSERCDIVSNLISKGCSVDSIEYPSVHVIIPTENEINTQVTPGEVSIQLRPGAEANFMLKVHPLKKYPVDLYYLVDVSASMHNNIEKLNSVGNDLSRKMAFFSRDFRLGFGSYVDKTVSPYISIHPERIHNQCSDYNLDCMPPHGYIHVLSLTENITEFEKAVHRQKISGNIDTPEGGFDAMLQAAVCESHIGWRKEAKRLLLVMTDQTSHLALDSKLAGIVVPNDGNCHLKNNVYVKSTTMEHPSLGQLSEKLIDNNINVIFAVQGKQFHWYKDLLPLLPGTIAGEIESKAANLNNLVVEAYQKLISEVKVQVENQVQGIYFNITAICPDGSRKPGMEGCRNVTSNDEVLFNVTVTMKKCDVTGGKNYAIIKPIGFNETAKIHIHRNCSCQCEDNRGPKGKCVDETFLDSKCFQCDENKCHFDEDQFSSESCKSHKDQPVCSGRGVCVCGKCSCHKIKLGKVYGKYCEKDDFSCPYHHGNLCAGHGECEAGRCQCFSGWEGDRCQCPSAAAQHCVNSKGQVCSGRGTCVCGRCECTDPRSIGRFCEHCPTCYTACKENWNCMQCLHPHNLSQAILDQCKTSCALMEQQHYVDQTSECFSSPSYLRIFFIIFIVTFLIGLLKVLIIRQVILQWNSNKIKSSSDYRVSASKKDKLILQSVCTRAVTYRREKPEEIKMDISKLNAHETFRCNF

T3: human integrin β8 swap construct I G I N P (SEQ ID NO:125) (human, UniProt P26012 43-769)
T3 sequence: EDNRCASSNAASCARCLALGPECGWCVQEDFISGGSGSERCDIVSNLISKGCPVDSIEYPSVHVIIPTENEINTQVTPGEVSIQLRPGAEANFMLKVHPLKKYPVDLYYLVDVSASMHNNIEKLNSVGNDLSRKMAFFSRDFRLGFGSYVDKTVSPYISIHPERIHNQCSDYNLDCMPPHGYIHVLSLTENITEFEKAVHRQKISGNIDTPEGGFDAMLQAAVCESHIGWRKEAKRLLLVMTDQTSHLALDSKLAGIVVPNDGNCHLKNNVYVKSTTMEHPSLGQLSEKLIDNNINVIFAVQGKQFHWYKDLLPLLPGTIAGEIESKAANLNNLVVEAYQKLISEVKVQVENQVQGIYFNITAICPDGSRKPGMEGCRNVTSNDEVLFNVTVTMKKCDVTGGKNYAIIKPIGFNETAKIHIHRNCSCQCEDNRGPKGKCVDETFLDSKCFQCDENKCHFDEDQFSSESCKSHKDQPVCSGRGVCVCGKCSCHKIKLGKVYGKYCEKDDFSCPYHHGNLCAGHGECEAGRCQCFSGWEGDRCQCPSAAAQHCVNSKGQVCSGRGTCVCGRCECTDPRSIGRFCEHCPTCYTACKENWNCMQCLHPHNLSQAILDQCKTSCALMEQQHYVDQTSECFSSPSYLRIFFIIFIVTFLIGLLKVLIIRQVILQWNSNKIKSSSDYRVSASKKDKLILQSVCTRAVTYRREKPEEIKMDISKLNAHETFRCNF

T4: human integrin β8 swap construct I G I N S (SEQ ID NO:126) (human, UniProt P26012 43-769)
T4 sequence: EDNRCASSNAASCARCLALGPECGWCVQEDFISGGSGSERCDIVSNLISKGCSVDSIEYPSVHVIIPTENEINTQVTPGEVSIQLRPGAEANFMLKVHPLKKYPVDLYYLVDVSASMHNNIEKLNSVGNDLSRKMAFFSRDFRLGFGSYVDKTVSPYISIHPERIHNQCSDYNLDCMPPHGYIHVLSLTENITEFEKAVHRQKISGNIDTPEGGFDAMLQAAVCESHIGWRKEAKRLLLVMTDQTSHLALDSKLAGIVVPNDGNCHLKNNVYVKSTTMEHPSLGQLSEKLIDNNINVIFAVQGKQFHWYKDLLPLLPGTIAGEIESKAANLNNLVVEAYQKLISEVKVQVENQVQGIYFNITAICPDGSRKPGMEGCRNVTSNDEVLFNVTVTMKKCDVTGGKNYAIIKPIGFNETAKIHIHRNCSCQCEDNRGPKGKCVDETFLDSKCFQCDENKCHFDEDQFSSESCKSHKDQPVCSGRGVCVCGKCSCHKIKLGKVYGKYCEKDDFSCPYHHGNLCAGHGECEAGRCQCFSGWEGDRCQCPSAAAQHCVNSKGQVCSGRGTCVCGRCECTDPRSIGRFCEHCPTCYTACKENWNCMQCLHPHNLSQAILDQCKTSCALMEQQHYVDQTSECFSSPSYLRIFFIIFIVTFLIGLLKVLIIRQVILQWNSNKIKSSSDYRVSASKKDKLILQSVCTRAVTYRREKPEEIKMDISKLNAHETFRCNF


How the values were obtained:
[1] = biological target: T1, mouse integrin β8; assay: cell surface staining, flow cytometry
[2] = biological target: T5, human integrin αβ8 (αvβ8) expressed on cells (human, UniProt P06756 31-1048); assay: flow cytometry, cell surface staining of β8 amino acid swap constructs
T5 construct: whole, on cells; β8 transfected into or endogenous on cells, unfixed or formalin fixed; also called human integrin β8; ITGB8

[3] = biological target: T2, human integrin β8 swap construct V R I …; assay: as above
[4] = biological target: T3, human integrin β8 swap construct I G I …; assay: as above
[5] = biological target: T4, human integrin β8 swap construct I G I …; assay: as above
[6] = biological target: T1, mouse integrin β8; assay: as above

T5 sequence (P06756 31-1048): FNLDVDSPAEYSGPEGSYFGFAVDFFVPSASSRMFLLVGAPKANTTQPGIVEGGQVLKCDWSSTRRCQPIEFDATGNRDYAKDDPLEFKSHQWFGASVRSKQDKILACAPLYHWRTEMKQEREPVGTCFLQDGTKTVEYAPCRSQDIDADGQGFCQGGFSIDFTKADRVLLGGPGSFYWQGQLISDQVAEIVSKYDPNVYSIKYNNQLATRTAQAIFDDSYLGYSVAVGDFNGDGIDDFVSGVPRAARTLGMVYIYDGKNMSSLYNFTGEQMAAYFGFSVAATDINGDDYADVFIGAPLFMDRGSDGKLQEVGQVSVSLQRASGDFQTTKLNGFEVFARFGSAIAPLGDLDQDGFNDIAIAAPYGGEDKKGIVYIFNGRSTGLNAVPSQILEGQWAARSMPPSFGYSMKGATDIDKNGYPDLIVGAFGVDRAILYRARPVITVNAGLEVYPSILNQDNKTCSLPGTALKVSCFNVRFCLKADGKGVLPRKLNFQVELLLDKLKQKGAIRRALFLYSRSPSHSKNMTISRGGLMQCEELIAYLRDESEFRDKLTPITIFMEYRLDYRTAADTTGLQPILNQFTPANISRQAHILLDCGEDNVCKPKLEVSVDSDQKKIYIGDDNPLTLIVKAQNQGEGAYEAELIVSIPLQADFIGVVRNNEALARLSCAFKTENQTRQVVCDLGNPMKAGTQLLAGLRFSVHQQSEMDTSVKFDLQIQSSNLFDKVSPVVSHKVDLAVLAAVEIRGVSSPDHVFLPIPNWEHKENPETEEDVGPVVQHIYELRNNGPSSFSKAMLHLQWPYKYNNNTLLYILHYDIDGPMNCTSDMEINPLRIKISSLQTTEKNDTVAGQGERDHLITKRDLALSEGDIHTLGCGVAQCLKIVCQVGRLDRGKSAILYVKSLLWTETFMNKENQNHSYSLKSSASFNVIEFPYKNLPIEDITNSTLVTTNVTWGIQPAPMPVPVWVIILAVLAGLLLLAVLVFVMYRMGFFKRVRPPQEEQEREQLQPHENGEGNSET

| binding result [1] | % positive [2] [%] | % positive [3] [%] | % positive [4] [%] | % positive [5] [%] | % positive [6] [%] | Binder |
| --- | --- | --- | --- | --- | --- | --- |
| no binding | 100 | 92 | 0 | 101 | 3 | 4F1 antibody (antibody, V domains shown, Hybridoma antibody; also called hybridoma clone 4F1) VH: QVQLQQSGAELVRPGTSVKVSCKASGYAFTNYLIEWVKQRPGQGLEWIGVINPGTGGTNYNKKFKVKATLTADKSSSTAYMQLGGLTFDDSAVYFCAREGNARTYYYAMDYWGQGTSVTVSS VL: DIEMTQTPASLSASVGETVTITCRASENIYSYLVWYQQKQGKSPQVLVYNAKTLAEGVPSRFSGSGSGTQFSLKINSLQPEDFGSYYCQHHNGTPYTFGGGTKLEIKR |
| no binding | 100 | 102 | 1 | 104 | 6 | 6B9 antibody (antibody, V domains shown, Hybridoma antibody; also called hybridoma clone 6B9) VH: QVQLQQSGAELVRPGTSVKVSCKASGYAFTDYLIEWVKQRPGQGLEWIGVINPETGGTNYNAKFKGKATLTADKSSSSAYMQLSSLTSGDSAVYFCAREAGNYIYAMDYWGQGTSVTVSS VL: DIQMTQSPASLSASVGETVTITCRASVNIYSYLVWYQQKQGKSPQLLVHNAKTLAEGVPSRFSGSGSGTQFSLKINSLQPEDFGSYYCQHHHGTPYTFGGGTKLEIKR |

From patent US20140271478A1 (University of California, published 2014)
